From the supplement of paper PMC10567573

B1: INTS4 (parent)
chain: TIIEPAGESDNPLRFTSGLVVALD

Variants of: B1
Experiment: protein stability index of a GFP-peptide fusion (GPS, HEK-293T) (PSI 1-6); higher = more stable
Conditions: c terminus: a fixed tail appended
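Also: lentivirally expressed fusions sorted by FACS into six bins by GFP to DsRed ratio, PSI derived from sequencing read proportions per bin multiplied by bin number.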

Protein stability index, by site and new letter:
L19: D 4.96; C 3.95; G 4.16; A 4.01; F 2.38; E 4.34
D10: N 3.61; Q 2.49; R 2.23; T 2.63; P 2.83; S 2.72; V 2; W 2.85; Y 1.89
G18: S 2.83; D 3.67; Y 1.89; W 2.09; C 1.66; R 2.24; F 1.41; I 2.4; T 2.51; P 2.59; E 3.15; Q 2.7; V 2.15; A 2.42; L 1.55; H 2.21; K 2.77; N 2.99; M 1.67
T16: S 2.88; I 2.21; D 3.92; C 1.91; L 1.99; F 2.35; R 3.35; A 2.74; N 3.39; H 2.23; V 2.01; Q 3.35; Y 1.74; E 3.44; G 3.15; W 1.76; K 3.02; P 3; M 2
S17: P 2.99; Q 3.06; R 2.05; F 2.08; V 1.73; N 2.53; D 3.92; C 1.52; L 3.12; G 2.9; M 1.67; I 2.27; K 2.65; W 2.14; A 2.51; H 2.5; T 2.92; E 3.73; Y 2.15
R14: S 3.63; G 3.25; I 2.46; Y 2.21; K 2.77; Q 3.26; L 2.96; E 4.21; C 2.62; F 2.04; D 3.93; V 2.86; M 2.27; H 3.91; N 3.95; T 2.96; W 2.03; A 3.63; P 3.4
L13: V 3.01; S 3.86; T 4.03; F 2.33; R 3.65; N 3.06; W 3.14; I 2.87; D 4.41; E 4.12; M 3.35; A 3.81; G 3.14; C 2.94; Q 3.5; P 3.6; Y 3.17; K 3.64; H 3.38
F15: C 3.87; W 2.2; G 4.03; M 3.44; D 5.04; L 3.21; R 3.92; I 3.72; T 4.3; P 3.9; V 3.97; H 4.37; K 3.54; N 4.36; Y 2.87; S 4.21; Q 3.99; E 4.63; A 4.29
N11: V 2.33; F 1.66; W 1.63; A 3.13; I 2.42; P 2.27; G 2.38; E 3.33; M 2.21; D 3.33; Q 3; C 2.9; K 2.86; S 2.6; H 2.47; Y 2.25; L 2.42; T 2.64; R 3.19
P12: M 2.33; W 2.14; D 3.4; N 2.88; L 2.1; E 3.13; Q 3.73; V 2.53; C 2.52; H 2.61; G 2.68; R 2.65; T 2.93; S 3.13; F 2.41; K 2.61; I 2.27; A 2.76; Y 1.96
